According to patent US5198419A, “Formulated medicines for enhancing the efficacy of beta-lactam antibiotics in prophylaxis and treatment against infectious disease due to pathogenic bacteria” (Immuno Japan Inc., priority 1989, dated 1993):

Tests used:
[1] = test system: most pathogenic bacteria; assay: Antibacterial activity of apolactoferrin in vitro, most bacteria; assay type: cell-based; details: most of the bacteria
Excerpt: (§1) Therefore, even though the lactoferrins have very weak antibacterial activity in vitro, it is questionable that they exert direct antibacterial activity against bacteria infecting mammals.
(§2) The minimum inhibitory concentration of apolactoferrin against
(§3) bacteria on the agar-plate medium.

[2] = test system: bacteria; details: iron-free lactoferrin; previous studies; cited from earlier work
[3] = test system: St. epidermidis ATCC 13288; assay: MIC of apolactoferrin on agar-plate medium; assay type: cell-based, Streptococcus epidermidis
Excerpt: as §1, §2, §3

[4] = test system: Kleb. pneumoniae IFO 3512; assay: MIC of apolactoferrin on agar-plate medium; assay type: cell-based, Klebsiella pneumoniae
Excerpt: as §2, §3

[5] = test system: Kleb. pneumoniae ATCC 10031; assay: MIC of apolactoferrin on agar-plate medium; assay type: cell-based, Klebsiella pneumoniae
Excerpt: as §2, §3

[6] = test system: Kleb. pneumoniae 3K25; assay: MIC of apolactoferrin on agar-plate medium; assay type: cell-based, Klebsiella pneumoniae
Excerpt: as §2, §3

[7] = test system: Pseu. aeruginosa TMS 11; assay: MIC of apolactoferrin on agar-plate medium; assay type: cell-based, Pseudomonas aeruginosa
Excerpt: as §2, §3

[8] = test system: Pseu. aeruginosa No. 11; assay: MIC of apolactoferrin on agar-plate medium; assay type: cell-based, Pseudomonas aeruginosa
Excerpt: as §2, §3

[9] = test system: Pseu. aeruginosa IFO 3445; assay: MIC of apolactoferrin on agar-plate medium; assay type: cell-based, Pseudomonas aeruginosa
Excerpt: as §2, §3

[10] = test system: Pseu. aeruginosa No. 47; assay: MIC of apolactoferrin on agar-plate medium; assay type: cell-based, Pseudomonas aeruginosa
Excerpt: as §2, §3

[11] = test system: Ser. marcescens IFO 12648; assay: MIC of apolactoferrin on agar-plate medium; assay type: cell-based, Serratia marcescens
Excerpt: as §2, §3

[12] = test system: Escherichia coli C11; assay: MIC of apolactoferrin on agar-plate medium; assay type: cell-based
Excerpt: as §2, §3

[13] = test system: Citrobacter freundii GN 346; assay: MIC of apolactoferrin on agar-plate medium; assay type: cell-based
Excerpt: as §2, §3

[14] = test system: Shigella flexineri; assay: MIC of apolactoferrin on agar-plate medium; assay type: cell-based
Excerpt: as §2, §3

[15] = test system: Enterobacter cloacae No 91; assay: MIC of apolactoferrin on agar-plate medium; assay type: cell-based
Excerpt: as §2, §3

[16] = test system: Shigella sonnei; assay: MIC of apolactoferrin on agar-plate medium; assay type: cell-based
Excerpt: as §2, §3

[17] = test system: Enterobacter feacalis 64; assay: MIC of apolactoferrin on agar-plate medium; assay type: cell-based
Excerpt: as §2, §3

[18] = test system: Escherichia coli NIHJ JC-2; assay: MIC of apolactoferrin on agar-plate medium; assay type: cell-based
Excerpt: as §2, §3

[19] = test system: Serratia marcescens No 78; assay: MIC of apolactoferrin on agar-plate medium; assay type: cell-based
Excerpt: as §2, §3

[20] = test system: Salmonella paratyphi B; assay: MIC of apolactoferrin on agar-plate medium; assay type: cell-based
Excerpt: as §2, §3

[21] = test system: Pr. rettgeri GN624; assay: MIC of apolactoferrin on agar-plate medium; assay type: cell-based
Excerpt: as §2, §3

[22] = test system: Pr. morganii IFO 3848; assay: MIC of apolactoferrin on agar-plate medium; assay type: cell-based
Excerpt: as §2, §3

[23] = test system: Staphylococcus aureus Smith; assay: MIC of apolactoferrin on agar-plate medium; assay type: cell-based
Excerpt: as §2, §3

[24] = test system: Serratia marcescens No 2; assay: MIC of apolactoferrin on agar-plate medium; assay type: cell-based
Excerpt: as §2, §3

[25] = test system: Enterobacter feacalis 95-1; assay: MIC of apolactoferrin on agar-plate medium; assay type: cell-based
Excerpt: as §2, §3

[26] = test system: Salmonella paratyphi A; assay: MIC of apolactoferrin on agar-plate medium; assay type: cell-based
Excerpt: as §2, §3

[27] = test system: Pr. inconstans GN 627; assay: MIC of apolactoferrin on agar-plate medium; assay type: cell-based
Excerpt: as §2, §3

[28] = test system: Vibrio cholerae 569B; assay: MIC of apolactoferrin on agar-plate medium; assay type: cell-based
Excerpt: as §2, §3

[29] = test system: Staphylococcus aureus 227; assay: MIC of apolactoferrin on agar-plate medium; assay type: cell-based
Excerpt: as §2, §3

[30] = test system: Micrococcus lutens ATCC 9341; assay: MIC of apolactoferrin on agar-plate medium; assay type: cell-based
Excerpt: as §2, §3

[31] = test system: Proteus mirabilis 1287; assay: MIC of apolactoferrin on agar-plate medium; assay type: cell-based
Excerpt: as §2, §3

[32] = test system: Proteus mirabilis GN79; assay: MIC of apolactoferrin on agar-plate medium; assay type: cell-based
Excerpt: as §2, §3

[33] = test system: Klebsiella oxytoca 1006; assay: MIC of apolactoferrin on agar-plate medium; assay type: cell-based
Excerpt: as §2, §3

[34] = test system: Staphylococcus aureus 209p; assay: MIC of apolactoferrin on agar-plate medium; assay type: cell-based
Excerpt: as §2, §3

[35] = test system: Salmonella typhi; assay: MIC of apolactoferrin on agar-plate medium; assay type: cell-based
Excerpt: as §2, §3

[36] = test system: Escherichia coli No 35; assay: MIC of apolactoferrin on agar-plate medium; assay type: cell-based
Excerpt: as §2, §3

[37] = test system: Proteus vulgaris GN76; assay: MIC of apolactoferrin on agar-plate medium; assay type: cell-based
Excerpt: as §2, §3

[38] = test system: Klebsiella pneumoniae GN69; assay: MIC of apolactoferrin on agar-plate medium; assay type: cell-based
Excerpt: as §2, §3

[39] = test system: Citrobacter freundii 2; assay: MIC of apolactoferrin on agar-plate medium; assay type: cell-based
Excerpt: as §2, §3

[40] = test system: Pr. rettgeri IFO 13501; assay: MIC of apolactoferrin on agar-plate medium; assay type: cell-based
Excerpt: as §2, §3

[41] = test system: Pr. morganii GN125; assay: MIC of apolactoferrin on agar-plate medium; assay type: cell-based
Excerpt: as §2, §3

[42] = test system: Pr. inconstans IFO 12930; assay: MIC of apolactoferrin on agar-plate medium; assay type: cell-based
Excerpt: as §2, §3

[43] = test system: Pseudomonas aeruginosa E 7; assay: MIC of apolactoferrin on agar-plate medium; assay type: cell-based
Excerpt: as §2, §3

[44] = test system: Proteus vulgaris IFO 3851; assay: MIC of apolactoferrin on agar-plate medium; assay type: cell-based
Excerpt: as §2, §3

[45] = test system: Bacillus subtilis ATCC 6633; assay: MIC of apolactoferrin on agar-plate medium; assay type: cell-based
Excerpt: as §2, §3

B1: apolactoferrin: iron-free lactoferrin, from bovine milk (protein, UniProt P24627 20-708, looked up)
Lactotransferrin: APRKNVRWCTISQPEWFKCRRWQWRMKKLGAPSITCVRRAFALECIRAIAEKKADAVTLDGGMVFEAGRDPYKLRPVAAEIYGTKESPQTHYYAVAVVKKGSNFQLDQLQGRKSCHTGLGRSAGWIIPMGILRPYLSWTESLEPLQGAVAKFFSASCVPCIDRQAYPNLCQLCKGEGENQCACSSREPYFGYSGAFKCLQDGAGDVAFVKETTVFENLPEKADRDQYELLCLNNSRAPVDAFKECHLAQVPSHAVVARSVDGKEDLIWKLLSKAQEKFGKNKSRSFQLFGSPPGQRDLLFKDSALGFLRIPSKVDSALYLGSRYLTTLKNLRETAEEVKARYTRVVWCAVGPEEQKKCQQWSQQSGQNVTCATASTTDDCIVLVLKGEADALNLDGGYIYTAGKCGLVPVLAENRKSSKHSSLDCVLRPTEGYLAVAVVKKANEGLTWNSLKDKKSCHTAVDRTAGWNIPMGLIVNQTGSCAFDEFFSQSCAPGADPKSRLCALCAGDDQGLDKCVPNSKEKYYGYTGAFRCLAEDVGDVAFVKNDTVWENTNGESTADWAKNLNREDFRLLCLDGTRKPVTEAQSCHLAVAPNHAVVSRSDRAAHVKQVLLHQQALFGKNGKNCPDKFCLFKSETKNLLFNDNTECLAKLGGRPTYEEYLGTEYVTAIANLKKCSTSPLLEACAFLTR
modifications: iron-free
notes: iron-free lactoferrin, from bovine milk
minimum inhibitory concentrations [1]: more than 6,400 μg/ml
antibacterial activity by degree of iron saturation [2]: the most potent
Minimum Inhibitory Conc. [3]: 800 µg/mL
Minimum Inhibitory Conc. [4]: > 6,400 μg/ml
Minimum Inhibitory Conc. [5]: > 6,400 μg/ml
Minimum Inhibitory Conc. [6]: > 6,400 μg/ml
Minimum Inhibitory Conc. [7]: > 6,400 μg/ml
Minimum Inhibitory Conc. [8]: > 6,400 μg/ml
Minimum Inhibitory Conc. [9]: > 6,400 μg/ml
Minimum Inhibitory Conc. [10]: > 6,400 μg/ml
Minimum Inhibitory Conc. [11]: > 6,400 μg/ml
Minimum Inhibitory Conc. [12]: > 6,400 μg/ml
Minimum Inhibitory Conc. [13]: > 6,400 μg/ml
Minimum Inhibitory Conc. [14]: > 6,400 μg/ml
Minimum Inhibitory Conc. [15]: > 6,400 μg/ml
Minimum Inhibitory Conc. [16]: > 6,400 μg/ml
Minimum Inhibitory Conc. [17]: 3,200 μg/ml
Minimum Inhibitory Conc. [18]: 3,200 μg/ml
Minimum Inhibitory Conc. [19]: > 6,400 μg/ml
Minimum Inhibitory Conc. [20]: > 6,400 μg/ml
Minimum Inhibitory Conc. [21]: 6,400 μg/ml
Minimum Inhibitory Conc. [22]: > 6,400 μg/ml
Minimum Inhibitory Conc. [23]: > 6,400 μg/ml
Minimum Inhibitory Conc. [24]: > 6,400 μg/ml
Minimum Inhibitory Conc. [25]: 3,200 μg/ml
Minimum Inhibitory Conc. [26]: > 6,400 μg/ml
Minimum Inhibitory Conc. [27]: > 6,400 μg/ml
Minimum Inhibitory Conc. [28]: 3,200 μg/ml
Minimum Inhibitory Conc. [29]: > 6,400 μg/ml
Minimum Inhibitory Conc. [30]: > 6,400 μg/ml
Minimum Inhibitory Conc. [31]: 3,200 μg/ml
Minimum Inhibitory Conc. [32]: > 6,400 μg/ml
Minimum Inhibitory Conc. [33]: > 6,400 μg/ml
Minimum Inhibitory Conc. [34]: > 6,400 μg/ml
Minimum Inhibitory Conc. [35]: > 6,400 μg/ml
Minimum Inhibitory Conc. [36]: 1,600 μg/ml
Minimum Inhibitory Conc. [37]: > 6,400 μg/ml
Minimum Inhibitory Conc. [38]: > 6,400 μg/ml
Minimum Inhibitory Conc. [39]: > 6,400 μg/ml
Minimum Inhibitory Conc. [40]: 3,200 μg/ml
Minimum Inhibitory Conc. [41]: 3,200 μg/ml
Minimum Inhibitory Conc. [42]: > 6,400 μg/ml
Minimum Inhibitory Conc. [43]: > 6,400 μg/ml
Minimum Inhibitory Conc. [44]: > 6,400 μg/ml
Minimum Inhibitory Conc. [45]: 3,200 μg/ml
